In patent US20090318350A1, “PAN-HER ANTAGONISTS AND METHODS OF USE” (published 2009):

Columns and labels:
HER3 receptor = HER3 receptor (human, UniProt P21860); assay: cell-based or functional assay
[1] = molecular target: human epidermal growth factor receptor (EGFR) (human, UniProt P00533); assay: cell-based or functional assay

Row | Binder | Calculated cell proliferation (EC50; picomolar) (HER3 receptor) [picomolar] | Calculated cell proliferation (EC50; picomolar) [1] [picomolar]
1 | Heregulin (purified protein) (ligand) SHLVKCAEKEKTFCVNGGECFMVKDLSNPSRYLCKCPNEFTGDRCQNYVMASFYKHLGIEFMEAEELY | 6150 | 
2 | EGF (purified protein) (ligand) HHHHHHIEGRNSDSECPLSHDGYCLHDGVCMYIEALDKYACNCWGYIGERCQYRDLKWWELR |  | 1150
